From patent publication US20080125498

Assays:
[1] = target: NMDA receptor NR1 subunit in adult rat brain membranes (UniProt P35439)
[2] = target: T1, protease-activated receptor 1 (PAR1), mouse, endogenous in hippocampal slices and cultured astrocytes (UniProt P30558)
T1 sequence: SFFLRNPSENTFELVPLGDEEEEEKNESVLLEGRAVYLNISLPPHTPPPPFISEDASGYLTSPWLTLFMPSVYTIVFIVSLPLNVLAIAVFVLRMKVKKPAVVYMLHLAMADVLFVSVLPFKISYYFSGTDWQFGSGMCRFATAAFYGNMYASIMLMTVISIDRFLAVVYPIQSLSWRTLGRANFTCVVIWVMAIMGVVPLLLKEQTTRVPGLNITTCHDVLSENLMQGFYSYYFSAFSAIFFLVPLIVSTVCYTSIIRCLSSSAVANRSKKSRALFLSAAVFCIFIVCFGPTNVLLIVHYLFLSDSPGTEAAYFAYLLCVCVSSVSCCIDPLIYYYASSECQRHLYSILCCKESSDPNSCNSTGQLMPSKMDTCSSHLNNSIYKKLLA

[3] = test system: N-terminal myc-tagged NR1-1a
[4] = test system: recombinant NR1-1b subunit transiently expressed in HEK 293 cells
[5] = target: endogenous plasminogen in mouse brain slices (UniProt P20918)
endogenous plasminogen in mouse brain slices, sequence (P20918 20-812): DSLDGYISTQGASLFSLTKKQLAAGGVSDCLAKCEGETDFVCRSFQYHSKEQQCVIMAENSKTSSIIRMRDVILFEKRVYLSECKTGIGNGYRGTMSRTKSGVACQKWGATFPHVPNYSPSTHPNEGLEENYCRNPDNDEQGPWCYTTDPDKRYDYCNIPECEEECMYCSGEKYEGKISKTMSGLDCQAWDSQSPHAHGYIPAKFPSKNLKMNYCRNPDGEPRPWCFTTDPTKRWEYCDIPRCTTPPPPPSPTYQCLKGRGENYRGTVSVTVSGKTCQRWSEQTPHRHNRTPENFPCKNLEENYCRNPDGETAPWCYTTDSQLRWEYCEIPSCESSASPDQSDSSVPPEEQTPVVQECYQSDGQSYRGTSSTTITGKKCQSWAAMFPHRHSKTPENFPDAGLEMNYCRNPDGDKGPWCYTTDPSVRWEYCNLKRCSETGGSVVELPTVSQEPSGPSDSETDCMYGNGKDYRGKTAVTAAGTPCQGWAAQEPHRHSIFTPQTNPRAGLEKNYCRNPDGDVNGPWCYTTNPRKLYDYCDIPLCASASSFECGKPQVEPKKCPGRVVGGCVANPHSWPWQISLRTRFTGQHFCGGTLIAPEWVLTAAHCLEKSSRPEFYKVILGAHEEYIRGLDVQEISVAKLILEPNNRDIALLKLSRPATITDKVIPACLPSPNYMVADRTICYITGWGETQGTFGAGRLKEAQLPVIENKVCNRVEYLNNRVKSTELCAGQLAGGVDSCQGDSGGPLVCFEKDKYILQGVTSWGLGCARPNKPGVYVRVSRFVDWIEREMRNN

tissue plasminogen activator, sequence (P00750 36-562): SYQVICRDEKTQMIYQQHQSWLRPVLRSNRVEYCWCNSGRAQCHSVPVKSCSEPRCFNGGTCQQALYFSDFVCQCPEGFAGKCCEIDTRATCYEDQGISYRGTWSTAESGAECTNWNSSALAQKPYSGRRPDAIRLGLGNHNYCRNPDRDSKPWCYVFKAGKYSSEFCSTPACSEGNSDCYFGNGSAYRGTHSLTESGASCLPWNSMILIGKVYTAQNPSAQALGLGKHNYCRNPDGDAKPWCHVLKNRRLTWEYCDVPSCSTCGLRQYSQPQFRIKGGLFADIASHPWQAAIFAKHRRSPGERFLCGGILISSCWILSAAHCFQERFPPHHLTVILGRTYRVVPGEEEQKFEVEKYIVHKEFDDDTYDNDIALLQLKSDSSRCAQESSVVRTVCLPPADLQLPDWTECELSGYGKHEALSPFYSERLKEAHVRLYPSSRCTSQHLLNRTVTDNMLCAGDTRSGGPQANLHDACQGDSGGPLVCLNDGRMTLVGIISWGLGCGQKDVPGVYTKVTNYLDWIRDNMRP

Substance	NR1 cleavage product in CA1 region after 15 minutes of 3 U/ml thrombin on slices [1]	maximal percent of NR1 cleaved, striatal membranes [1]	percent of NR1 cleaved, all brain regions except striatum, 1-3 micromolar thrombin [1]	percent of NR1 cleaved, cerebellar, cortical and brainstem membranes, 300 nM thrombin [1]	percent of NR1 cleaved, hippocampal membranes, 30 nM thrombin [1]	percent of NR1 cleaved, striatal membranes, 30 nM thrombin [1]	proteolysis of NR1 (immunoblot) [1]	PI hydrolysis in hippocampal slices [2]	proteolysis of myc-tagged NR1-1a (immunoblot) [3]	proteolysis of recombinant NR1-1b (immunoblot) [4]	PI hydrolysis after tPA application to hippocampal slices [2]	PI hydrolysis in hippocampal slices [5]
alpha-thrombin	no NR1 cleavage product was observed in immunoblots of membranes obtained from the CA1 region microdissected immediately following the experiment	the maximal observed cleavage of 52% suggests a thrombin resistant population of NR1 subunits exists	1-3 micromolar thrombin cleaved 100% or subunits in all brain regions except striatum	cerebellar (n=7), cortical (n=5), and brainstem (n=5) NR1 subunits were insensitive to cleavage by 300 nM thrombin (30 U/ml)	30 nM thrombin (3 U/ml) cleaved 20% of the NR1 subunit in hippocampal membranes (n=7)	50% of NR1 in striatal membranes (n=10)	Incubation of brain membranes with thrombin for 1 hour at 37 °C resulted in the appearance of a new band that was 12 kD (n=10) lower in molecular weight than the parent band	Both thrombin and plasmin increased PI hydrolysis in wild type hippocampus, but not in the hippocampus of PAR1-/- mice	Thrombin induced a similar shift in molecular weight for N-terminal myc-tagged NR1 as observed for the recombinant and native receptors detected with mAb54.1	10-1000 U/ml of thrombin cleaved both homomeric NR1-1b receptors (n=9/10 experiments) and heteromeric NR1-1b/NR2B receptors (n=6/6 experiments)	–	–
plasmin	–	–	–	–	–	–	–	Both thrombin and plasmin increased PI hydrolysis in wild type hippocampus, but not in the hippocampus of PAR1-/- mice	–	–	Application of tPA to wild type hippocampal slices significantly increased PI hydrolysis compared with application to PAR1-/-hippocampal slices	–
tissue plasminogen activator	–	–	–	–	–	–	–	–	–	–	–	application of tPA did not increase PI hydrolysis in plasminogen-deficient mice
